Publication PMC11901838

Target: Human thyroid-stimulating hormone receptor (human) (UniProt P16473)
Sequence of UniProt P16473 (P16473 21-764): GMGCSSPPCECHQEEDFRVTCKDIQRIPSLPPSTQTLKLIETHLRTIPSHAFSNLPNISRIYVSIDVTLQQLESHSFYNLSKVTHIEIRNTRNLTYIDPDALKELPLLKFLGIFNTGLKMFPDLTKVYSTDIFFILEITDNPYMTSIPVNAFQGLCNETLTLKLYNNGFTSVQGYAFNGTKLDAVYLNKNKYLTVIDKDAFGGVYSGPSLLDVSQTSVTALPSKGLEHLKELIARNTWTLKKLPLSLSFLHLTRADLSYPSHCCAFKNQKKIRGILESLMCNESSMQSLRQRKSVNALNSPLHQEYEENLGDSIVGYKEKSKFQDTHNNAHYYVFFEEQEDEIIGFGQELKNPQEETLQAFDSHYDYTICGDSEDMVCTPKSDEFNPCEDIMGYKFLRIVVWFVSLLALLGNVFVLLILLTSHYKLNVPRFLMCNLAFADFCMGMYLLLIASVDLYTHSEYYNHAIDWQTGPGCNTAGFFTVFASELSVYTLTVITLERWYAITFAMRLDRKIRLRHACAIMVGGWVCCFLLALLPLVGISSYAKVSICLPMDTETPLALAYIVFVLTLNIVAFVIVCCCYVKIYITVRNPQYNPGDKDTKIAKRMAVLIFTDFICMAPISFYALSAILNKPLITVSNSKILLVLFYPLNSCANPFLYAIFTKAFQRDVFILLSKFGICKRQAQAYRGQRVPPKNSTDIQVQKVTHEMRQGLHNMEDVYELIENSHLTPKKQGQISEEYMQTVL

EC50 of the NFAT-driven luciferase reporter (RLU) in HEK293-TSHR/NFAT-Luc cells seeded at 0.8 × 10^5 cells/mL, serially diluted rhTSH: 0.32
Substance: Recombinant human thyroid-stimulating hormone (from UniProt P01215 25-116; P01222 21-132) (ligand)
